Source: PMC8720280 (2021)

B1: KMTR2 (antibody, V domains shown)
VH: QVQLVQSGAEMKKPGASVKVSCKTSGYTFTNYKINWVRQAPGQGLEWMGWMNPDTDSTGYPQKFQGRVTMTRNTSISTAYMELSSLRSEDTAVYYCARSYGSGSYYRDYYYGMDVWGQGTTVTVSS
VL: EIVLTQSPATLSLSPGERATLSCRASQSVSSYLAWYQQKPGQAPRLLIYDASNRATGIPARFSGSGSGTDFTLTISSLEPEDFAVYYCQQRSNWPLTFGGGTKVEIK
B2: Lexatumumab (antibody, V domains shown)
VH: EVQLVQSGGGVERPGGSLRLSCAASGFTFDDYGMSWVRQAPGKGLEWVSGINWNGGSTGYADSVKGRVTISRDNAKNSLYLQMNSLRAEDTAVYYCAKILGAGRGWYFDLWGKGTTVTVSS
VL: SSELTQDPAVSVALGQTVRITCQGDSLRSYYASWYQQKPGQAPVLVIYGKNNRPSGIPDRFSGSSSGNTASLTITGAQAEDEADYYCNSRDSSGNHVVFGGGTKLTVL

Experiments:
[1] = molecular target: T1, WT DR5 recombinant protein (IgG4-Fc tagged extracellular domain of human DR5) (human, UniProt O14763-1 56-210, biotinylated with EZ-Link Sulfo-NHS-SS-Biotin for BLI); test: BLI
[2] = molecular target: T1, WT DR5 recombinant protein (IgG4-Fc …); test: ELISA
RKCAR DR5 = test: BLI
Chimp DR5 = test: BLI
RKCSR DR5 = test: BLI
Monkey DR5 = test: BLI
[3] = molecular target: T1, WT DR5 recombinant protein (IgG4-Fc …); test: BLI; remark: listed apart in the source
[4] = molecular target: T1, WT DR5 recombinant protein (IgG4-Fc …); test: ELISA; remark: listed apart in the source

Binder	Kd [1]	Kd [2]	Kd (RKCAR DR5)	Kd (Chimp DR5)	Kd (RKCSR DR5)	Kd (Monkey DR5)	Kd [3]	Kd [4]
B1	< 0.001 nM	0.088 nM	–	–	–	–	–	–
B2	0.519 nM	0.081 nM	0.266 nM	< 0.001 nM	0.215 nM	0.014 nM	0.0376 nM	0.032 nM
